Experimental data published in the DeepSol protein solubility set.

assay: soluble on expression in E. coli; label from the status in PepcDB or PDB records

Row | Sequence | soluble on expression in E. coli
1 | MAFEGLSERLQATMQKMRGKGKLTEADIKIMMREVRLALLEADVNFKVVKEFIKTVSERALGSDVMQSLTPGQQVIKIVQDELTQLMGGENTSINMSNKPPTVVMMVGLQGAGKTTTAGKLALLMRKKYNKKPMLVAADIYRPAAINQLQTVGKQIDIPVYSEGDQVKPQQIVTNALKHAKEEHLDFVIIDTAGRLHIDEALMNELKEVKDIAKPNEIMLVVDSMTGQDAVNVAESFDDQLDVTGVTLTKLDGDTRGGAALSIRSVTQKPIKFVGMSEKLDGLELFHPERMASRILGMGDVLSLIEKAQQDVDQEKAKDLEKKMRESSFTLDDFLEQLDQVKNLGPLDDIMKMIPGMNKMKGLDKLNMSEKQIDHIKAIIQSMTPAERNNPDTLNVSRKKRIAKGSGRSLQEVNRLMKQFNDMKKMMKQFTGGGKGKKGKRNQMQNMLKGMNLPF | not soluble
2 | MNDIEAAFHQYFEIIDADTPELLKTVFDLRYRILCVHNVIPGFDTNNYPNELESDQYDSHSIHFLLRHRPTNTFIGTTRLILPNPLDPMDKFPTELNTHFYPGFVLDSSSRKHTTEVSRFAILSDFFKRKGERNMLSQSTEIGCKAQERRRFPHPMLGLVVGLIQLCARNNIYHLISAMEPALNKLLGFYSLQMNPIGPPADYHGLRTPYYLYLPDLLDRMYQDHRSLWELITDHGRIWPMNLACIHQKTLKTAYTDNVYISE | not soluble
3 | HHASPRKQGKKENGPPHSHTLKGRRLVFDN | soluble
4 | MASFITRAERSGNIFSRVTGLIRAGQLNWADRPLWYDVYVSSPPLTPPDWNVKLAKYDEPIRSIFYEEDVLRAKFYKTYRSTAGIQVDSSRTSVSQQFINEYKLVKSENAEATDDQLFEMTQKRLNENGIVLK | not soluble
5 | MGSDKIHHHHHHMDMQQLKPSREHDAPLYLQLYRRYRDAIIARKLHPGDRVPSVRSLASELNLARGTVEMAYQMLASEGYFLTRGPAGTIVSPQLEKLTESGYSTTSLSQIPSRPQIETAQVQPFQLGLPALDAFPRKTWARLAGHNLRTLDTAAMISPDPAGYEPLRRAIATYLGISRGITCTHEQVFITAGYRGALELVCRTLLQPGDIGWFEDPGYIFARQFLARAGMHLEPVPVDEEGLNVDIGQQRAAEARFAVVTPTHQSPMGMALSLPRRLQLLEWASHHRSWIIEDDYDSEFRYHGRPLPALKSLDRDGRVLYTGTFSKVLFPGLRLAYLVVPEPQIERFRDTANHFCCAGSILPQATVANFMEQGHFARHLRRMRSLYAIRRGYLVDELLQALGSHLTVQPQAGGIHVLATLTARGNDQSLAAAAQSHGLAIQALNDWRTSKTSRGGLLMGFTNVTEPAMAKALVHRLAAAIGLS | not soluble
6 | MAHHHHHHMQAITASTPSQQYSVGAGIEKPLGVTTSADWMTMYERKPHGNSTLFELEAMVAKRMEFLAWVDQQINSPQAKNFDSVLDAIIARLPEERRSSAATDGSRVKMISLGYDETAAGGCSDRRSSSRGSTGSAAGANQAASIVFAPEEDVTSHLLCRFAFCMSERWRDWLVRTERVLLTARIKMEMAKRPFTFLVDLMKRNGLPCAPLTDKQLADPMLQEYLEYRRVKAESARESEGRVENYYAVPLSLATRLIKKRYVLCRAGQAILFRDQVQEVFLTVFCARLNRGLHNAYLARVKQQALEEETAKSTVMAMLDAFLQQFISDPVDTLQEGVAGSVRARDVQRLAQAHFPPCMRAIDWHLRREGHLKHHGRFMYGLFLKSIGLSLEDSLELFATLMKVKGGGSVEAFAKTAYGYNVRHNYGMEGKKMSYSSASCATILGLPPVVDQHDCHGCPFRFRDEGALRTMLGKETENPKGCDYPSVRPTPGDIEDIVSDSKAQHYTRACYKYFMATHPGARRDTLFRSPYEYYSVSLEFETPSDGTESARPSAVPGKRTSVVLNEDVLRFRTSP | not soluble
7 | MTYPIPKPREKSRWPNLSQGSLPLALARYLPHKRLKVVLTQDAEQALRLQTAWRFFRPHDTAVFLPDWETLPYERFSPHQDLVSERLSALWQIKSGAADVLFVPVATAMQKLPPVPFLAGRTFWLKTGQTLDIGRLKSDLVDAGYNHVSHVVAAGEFAVRGGIVDLFPMGSEMPYRIDLFDDEIDSIKTFDTETQRTISPVSEIRLLPAHEFPTDSEAQKIFRSRFREEVDGNPNDAAVYKAVSNGHFGAGVEYYLPLFFENELETLFDYIGEDALFVSLDDVHAEANRFWSDVKSRYAMAQGDETYPPLLPQYLYLSADVFAGRLKNYGQVLPDVSGKEYTLPDLAVNRQADEPLQALKDFQTAFDGRILLCAESLGRRETMLGFLQQNGLKAKPVSDWQGFLSAHEPLMITVAPLAYGFKLGGLQSPNQQQPTPSPVGEGWGEGKAVAAQTEFSAAAINPLPSPLPQEREQSAAAVSDSLKAAAVSTESSLPLGTSNLHGQIRQQPAPSPVGEGWGEGKAVAAQTEFPASATNPLPSPLPQEREQSAAAVSDDLKTKSSLHPVANNLHGQIRQQPTPSPVGEGWGEGKAVAAQTEFSAAATNPLPSPLPQEREQSAAVVSDSLKAAAVSTESSLPPGKSNLHGQIQQQPAPSPVGEGWGEGKAVAAQSAIAVITESDLYQYVARSRIHNRRKKHAAVSDGLLRDLAEINIGDPVVHEEHGIGRYMGLVTMDLGGETNEMMLLEYAGEAQLYVPVSQLHLISRYSGQAHENIALHKLGSGAWNKAKRKAAEKARDTAAELLNLYAQRAAQSGHKFEINELDYQAFADGFGYEETEDQAAAIAAVIKDLTQAKPMDRLVCGDVGFGKTEVALRAAFVAVMGGKQVAVLAPTTLLVEQHAQNFADRFADFPVKVASLSRFNNSKATKAALEGMADGTVDIVIGTHKLVQDDIKFKNLGLVIIDEEHRFGVRQKEQLKRLRANVDILTMTATPIPRTLSMALEGLRDFSLITTAPSRRLAVKTFVKPFSEGSVREAVLRELKRGGQVFFLHNEVDTIENMRERLETLLPEARIGVAHGQLRERELEQVMRDFLQQRFNVLLCSTIIETGIDIPNANTIIINRADKFGLAQLHQLRGRVGRSHHQAYAYLLTPEYITKDAEKRLDAIAAADELGAGFTLAMQDLEIRGAGEILGEGQSGEMIQVGFTLYTEMLKQAVRDLKKGRQPDLDAPLGITTEIKLHSPALLPEDYCPDIHERLVLYKRLAVCETVQQINTIHEELVDRFGLPEQPVKTLIESHHLRLMAKELGIDAIDAAGEAVTVTFGKNNNVDPTEIILLIQNDKKYRLAGADKLRFTAEMENIEVRINTVKNVLKTLQNRCLPK | not soluble
8 | MRYTGYMMEVRQLRHFVTVAEWESFTLAAQQLHIAQPALSISIKKFEQQLGVTLFKRDERKVALTHEGEVLLEHAKRILQQVNDAQLAVDELKGVVKGEVRLGAPSMMGSYFFPQIIMAFKSHFPNLKMTVIEAGTQSIRRMLLSGELDIGVILNHDLPDDLAADPLLSSQMVAVVGKNHELAERRHLTFAEFFEHELVMFKPGYFHRDFIDKVCREHKFTADFSFETNLLPMILSIVKHEYAITALLELVTSNEPEVKAIPFEPPVWLDLALAWRKEGYLSNADRTFIEFVKKYV | not soluble
9 | MGSDKIHHHHHHMNALQFQKKLLSMQENMMNFALMLTANRDDAQDLMQDTTLKVLDNQEKFVDNINFKGWVLTVMRNIFINNYHKIVRTQTVVDQGVDLYNLDVVNDSGFDSPDGAYQIQEITKAINGLNNELKVPFSMFLSGYKYNEIADKLDVPLGTVKSRIFFARQELQKVLKDFRQG | not soluble
10 | MASRGLDLWLDEHVWKRKQEIGVKGENLLLPDLWLDFLQLSPIFQRKLAAVIACVRRLRTQATVYPEEDMCMAWARFCDPSDIKVVILGQDPYHGGQANGLAFSVAYGFPVPPSLRNIYAELHRSLPEFSPPDHGCLDAWASQGVLLLNTILTVQKGKPGSHADIGWAWFTDHVISLLSERLKACVFMLWGAKAGDKASLINSKKHLVLTSQHPSPLAQNSTRKSAQQKFLGNNHFVLANNFLREKGLGEIDWRL | soluble
11 | GLGRKPHTRILSFEKLEADKFICQHLNLSLGEAVFKLSRLRIADNEPLMVEDTYLPVKFFLSLTDQLLRSKPLYDLFSEDFKQTVRLADEELYASIASKEDAKLLMIPEGAPVLHLARQTYNMKNEIIEFTLSVARADQFHYQIRHIRNS | soluble
12 | MIHDYHWRRGKRRKLIVMMETRMMIIMMTIKPPHDIYREQQNHHDDETKRSTKHCVTATHPWPRPAASCFRCPLRGGHHRRRPACALPHGWSVMNSCSLEHHHHHH | not soluble
13 | MSSITKSRSTKKLSQVIVEQLIETIQSGEFKIGEKIPTELELIEQFDVSRSVIREAITELRSLGFVETRHGIGTFVKEQNIEQNFLLSNASLETINDIVALLELRISLESEAVFLASERRKNKHLEKMKIALNDFEAHISSGENDGTVKADYDFHIAIAEASGNQYFVDFLKYLGEKIIPRARVKSIEQSPENREEYLKTVHHDHVNIYNAILDQDGLLARQMMRAHLSKSIKKFKQ | not soluble
14 | MSLKLYYQQAMLLPKTKEILLRWEGVLSAGQRKASNAVVINLKGKMDMLLWAVAGSGKTEMMFEGMDWALRQGFRICVASPRVDVCLELLPRLKEAFPSMDIVCLYGDSKDNYQGEQFVIATTHQLIRFYETFQVIFIDEVDAFPYAKDPFLEYAVMKARTKEGSTIIITATPEKKWQEECVKGKRNFVKIPGRYHREGHHHHHH | soluble
15 | MIKLRMPAGGERYIDGKSVYKLYLMIKQHMNGKYDVIKYNWCMRVSDAAYQKRRDKYFFQKLSEKYKLKELALIFISNLVANQDAWIGDISDADALVFYREYIGRLKQIKFKFEEDIRNIYYFSKKVEVSAFKEIFEYNPKVQSSYIFKLLQSNIISFETFILLDSFLNIIDKHDEQTDNLVWNNYSIKLKAYRKILNIDSQKAKNVFIETVKSCKY | soluble
16 | MDRPLLIFSGQSNRPLAQAIAEALGLPLGKSTTLRFANDNLFVRYEESLREGDVFIVQSFVPPVQDHLMELLMMVDAAKGASAARVTAVIPYFSYARSDKKDAPRISITARLIADLLQTAGADRVLTMTLHSPQVHGFFKIPVDHLSAEPVIANYFATRVDLENAVVVAPDAGDLKRASALARRLGLPLAFIDKERVSDTEVRVRMLVGEVEGKTALIVDDEISTAGSLVEAVEALMQAGAKEVYAAATHGVYVGPALDRIAKSPVKEVAATDTCPPKEGPKLRTLTVAPLFAEAIWRIHRGESVSSLFT | soluble
17 | MRVFALQLESFKENLMQSLFNSIPKKSVIVLPEYVINPFFHHNMGLDVNEISDQSARAVEFLSQKCEELDLIVSAPVLLEEHSKIYKKIALISKESVKYYTQQRLIPYPHWDEESFFDNEKSAFKELLVFERDGLKFAPLFGFEAHFDEIWVQAKNQGVDVVLLSSVATFESNERWRLLCQMRAFCASCVVVRANRIGAYRQIIVEEDQKNEFLWKFYGDSFVALPNGAIEDSLEGKMGALNAQIDKNDIDEWAKLWHFRTIKEGLEHHHHHH | not soluble
18 | GQQKNMENKTLNENIPEMIISLEKEALASTDPMAFVELSDTDVIYFDPSLETKIEGLEQLRTYYKGMQLPPADHFDMIRPVVQVAQNIAVLTFNLDSYLSDKVIKWNCTEVYRRNPDNQWKIIQTHWSYVKPLD | soluble
19 | VDTHSEVLIFEVIPADDFLQQQLQITVQDRVWHVKRVRYRKQKPMALEETWMPLALFPDLTWQVMENSKYHFIEEVKKMVIDRSEQEIIPLMPTEEMSRLLNISQTKPILEKVSRGYLVDGRVFEYSRNAFNT | soluble
20 | MPPQKYHCNVCAQDITRSIHIRCVECVDFDLCIPCFTSGASLGTHHPSHPYRIIETNSYPIFDENWGADEELLLIDACETLGLGNWADIADYVGNARTKEECRDHYLKTYIESDCYPLASVELPGPVDRIAFAARKRARIEAFQPPPIIPQKPLASTPQCHEIQGYMPGRLEFDQEYMNEAELPIKDMNFDDDLHESAKHEMQLKLTMLNIYNSRLTRRAVRKQTIFNHNLLDYRRLQANEKRMSKEERNLLNKTKAFARLLTGPDYQKFVNSYHEQITLKKQISDLQEWRQMGLTTLEQGHKYERDKTQKFLLSKASASYDKQLRHVKSFNQTTSAPFQVRDIQKIVPRKPATPTMFSASADRQLLSEDEQALCSKLQIFPKPFLALKFALISASLTSKKPFQKTDAVNLFKHLDANKVEQVYDFFHNARWIGAPT | soluble
